Measured values published in patent US20090068110A1, “ANTIBODIES TO INSULIN-LIKE GROWTH FACTOR RECEPTOR” (Genentech, Inc., priority 2006, published 2009).

B1: 9F2: mouse monoclonal anti-IGF-1R antibody from hybridoma 9F2.6.2, ATCC PTA-7018 (antibody, V domains shown)
VH: QIQLVQSGPELKKPGETVKISCKASGYTLANYGMNWVKQAPGKGFKWMGWINTNTGKPTYSDEFKGRFVFSLETSASTAYLLINNLSNEDTATYFCARSIYYYGSRYFNVWGAGTT
VL: DIQMTQSTSSLSASLGDRVTISCRASQDINNYLTWYQQKPDGTVKLLIYYTSRLHSGVPSRFSGSGSGTDYSLTITNLEQEDFATYFCQQGNTLPWTFGEGTKVEIKR
B2: 10H5: mouse monoclonal anti-IGF-1R antibody from hybridoma 10H5.3.4, ATCC PTA-7007 (antibody, V domains shown)
VH: QVQLQQPGAELVKPGASVTLSCKASGYTFTRFWIHWVKQRPGQGLEWIGEINPSNGRTNYNENFKNKATLTVDTSSSTAYMQLSSLTSEVSVVYYCARGGRLDQWGQGTT
VL: DIVMTQSQKFMSTSLGDRVSVTCKASQNVGSNVAWYQQKPGQSPEALIYSASYRYSGVPDRFTGSGSGTDFTLTISNVQSEDLAEYFCHQYNNYPYTFGGGTKVEIKR

Legend:
murine IGF-1R = molecular target: T1, murine IGF-1R (Mus musculus, UniProt Q60751); assay: BIACORE surface-plasmon resonance, murine IGF-1R; format: binding
T1 construct: evaluated against human and murine IGF-1R-ECD
T1 sequence (Q60751 31-737 limits assumed): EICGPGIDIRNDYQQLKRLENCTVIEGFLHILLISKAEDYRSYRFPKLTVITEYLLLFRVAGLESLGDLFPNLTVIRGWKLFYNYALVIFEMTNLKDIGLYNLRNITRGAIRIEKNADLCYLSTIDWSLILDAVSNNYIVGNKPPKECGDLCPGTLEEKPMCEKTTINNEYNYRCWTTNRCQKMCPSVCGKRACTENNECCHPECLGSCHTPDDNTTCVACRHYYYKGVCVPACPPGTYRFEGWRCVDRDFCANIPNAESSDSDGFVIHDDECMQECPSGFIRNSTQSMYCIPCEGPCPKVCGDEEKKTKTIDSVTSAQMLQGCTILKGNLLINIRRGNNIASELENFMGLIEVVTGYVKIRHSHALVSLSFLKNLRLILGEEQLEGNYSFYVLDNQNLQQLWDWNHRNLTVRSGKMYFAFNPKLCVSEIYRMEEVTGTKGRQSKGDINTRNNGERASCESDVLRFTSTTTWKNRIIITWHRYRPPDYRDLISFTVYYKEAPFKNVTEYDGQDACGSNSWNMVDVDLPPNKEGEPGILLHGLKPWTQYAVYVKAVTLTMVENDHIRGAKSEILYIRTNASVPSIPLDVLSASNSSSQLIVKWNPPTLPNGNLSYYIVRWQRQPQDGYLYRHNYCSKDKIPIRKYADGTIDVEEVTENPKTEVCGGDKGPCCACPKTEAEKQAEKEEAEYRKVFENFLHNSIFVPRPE
T1 sequence (Q60751 742-936 limits assumed): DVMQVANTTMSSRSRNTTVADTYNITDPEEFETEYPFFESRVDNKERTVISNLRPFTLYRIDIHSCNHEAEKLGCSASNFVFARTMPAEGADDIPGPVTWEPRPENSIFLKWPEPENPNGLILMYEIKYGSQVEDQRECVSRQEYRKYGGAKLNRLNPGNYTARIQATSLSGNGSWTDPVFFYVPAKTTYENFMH
Description: Before HVR grafting, murine 2B4, 9F2, and 10H5Fab binding affinities were evaluated against human and murine IGF-1R-ECD using BIACORE™ instrument analysis. The procedure used was that for BIACORE™ instrument analyses generally, wherein the analyte was anti-IGF-1R Fab (500 nM-[…]; two-fold serial dilution), the ligand was IGF-1R (about 500 RU)-coated CM5 sensor chip, and the temperature was 25° C.
Binding affinities of selected antibodies to IGF-1R were determined by surface plasmon resonance measurements on a BIACORE™ 3000 instrument (BIAcore, Inc.). Human, murine, or cynomolgus-monkey IGF-1R was immobilized at a density of about 500 RU on the flow cells of a PIONEER™ CM5 sensor chip. Immobilization was achieved by random coupling through amino groups using a protocol provided by the manufacturer. Sensorgrams were recorded for binding of anti-IGF-1R Fab or IgG to these surfaces by injection of a series of solutions ranging from 500 nM to 3.1 nM and 250 nM to 0.78 nM in two-fold increments, respectively. The signal from the reference cell was subtracted from the observed sensorgram. Kinetic constants were calculated by non-linear regression analysis of the data according to a 1:1 Languir binding model using software supplied by the manufacturer.

human IGF-1R-ECD = molecular target: T2, human IGF-1R-ECD (Homo sapiens, UniProt P08069); assay: competitive ELISA, blocking of IGF-I/II and IGF-1R interaction; format: binding; details: antibody 100 nM to 0.0976 nM, biotinyl-IGF-I or IGF-II 60 ng/ml
T2 construct: containing the extracellular domain (ECD, amino acids 1-902) tagged with 10 or 12 histidine residues at the carboxyl terminus; His10 or His12 (C); made in house; host or cells: CHO cells
Description: To determine whether the anti-IGF-1R antibodies could block ligand/receptor interaction, competitive ELISA was utilized. Human IGF-1R-ECD was coated overnight at 4° C. at 1 μg/ml in a 96-well immunoplate (Nalge Nunc International, Rochester, N.Y., USA). The ELISA plate was washed with wash buffer (PBS, 0.05% TWEEN™ 20 surfactant, pH 7.4), and 150 μl/well of blocking buffer (PBS with 0.5% BSA) was added for one hour at room temperature with gentle agitation. Purified anti-IGF-1R antibodies were first subjected to a two-fold dilution from 100 nM to 0.0976 nM in assay buffer (PBS, 0.5% BSA and 0.05% TWEEN™ 20 surfactant, pH 7.4) and added to the immunoplate to incubate at room temperature for one hour. Biothinyl-IGF-I or IGF-II at 60 ng/ml concentrations (Cell Science, Canton, Mass., USA) was then added and incubated for another 30 minutes. The ELISA plate was washed three times, and 100 μl/well of streptavidin-HRP (GE Healthcare, Piscataway, N.J., USA) at a dilution of 1:6,000 was added for 20 minutes. Color development was conducted as described in conjunction with the direct ELISA. The selected anti-IGF-1R antibodies inhibited IGF-I or IGF-II binding to IGF-1R to various degrees (FIGS. 19A and 19B for IGF-I and IGF-II, respectively).

PC3 = assay: cell viability assay, PC3; format: cell-based, human; design: key: +: growth inhibition; −: no or weak effect; details: PC3, Prostate Adenocarcinoma
Description: (§1) The different cell lines were cultured in their respective culture media at 37° C. in a humidified atmosphere of 5% CO2. Subsequently, cells were detached from tissue-culture flasks using the cell-dissociation solution, TRIPLE SELECT™ solution (InVitrogen, Carlsbad, Calif., USA), and centrifuged at 1000 rpm for five minutes. Detached cells were washed once with PBS, counted, and seeded in 96-well plates (Corning, N.Y., USA) at 2000 cells per well in 100 μL of culture media. After an overnight incubation at 37° C. in a humidified atmosphere of 5% CO2, the cell-culture medium was replaced with 50 μL of starvation medium consisting of serum-free RPMI 1640™ medium without phenol red. The cells were then starved for five hours in the incubator before addition of 25 μL of each anti-IGF-1R monoclonal antibody at various dilutions in serum-free RPMI 1640™ phenol red-free media. Later, 25 μL of phenol red-free RPMI 1640™ media supplemented with 4% of fetal bovine serum (FBS) (Sigma) with or without 4 ng/ml of human recombinant IGF-I were added on top of the 50 μL of antibody. The cells were then placed at 37° C. with 5% CO2 for 5 to 6 days. At the end of the assay, cell viability was measured using the […]-GLO® kit according to the manufacturer's instructions (Promega, Madison, Wis., USA).

DU145 = assay: cell viability assay, DU145; format: cell-based, human; design: key: +: growth inhibition; −: no or weak effect; details: DU145, Prostate Adenocarcinoma
Description: as §1

KM12 = assay: cell viability assay, KM12; format: cell-based, human; design: key: +: growth inhibition; −: no or weak effect; details: KM12, Colorectal Adenocarcinoma
Description: as §1

SW480 = assay: cell viability assay, SW480; format: cell-based, human; design: key: +: growth inhibition; −: no or weak effect; details: SW480, Colorectal Adenocarcinoma
Description: as §1

DLD1 = assay: cell viability assay, DLD1; format: cell-based, human; design: key: +: growth inhibition; −: no or weak effect; details: DLD1, Colorectal Adenocarcinoma
Description: as §1

HMEC = assay: cell viability assay, HMEC; format: cell-based; design: key: +: growth inhibition; −: no or weak effect; details: Human Mammary Epithelial Cell
Description: as §1

IGF-1R = IGF-1R (Homo sapiens, UniProt P08069); assay: KIRA assay of IGF-1R phosphorylation in MCF7 cells; format: cell-based; design: IGF-1R is normally localized at the plasma membrane of MCF7 cells; endogenous in cells; host or cells: MCF7; details: IGF-I 10 ng/ml or IGF-II 50 ng/ml; ranking upon IGF-II stimulation
Description: Also examined was whether the blocking activity of these antibodies was sufficient to interfere with receptor activation, which is measured by IGF-1R phosphorylation. A KIRA assay (kinase receptor activation) was utilized to perform quantitative analysis of IGF-1R phosphorylation in MCF7 cells. Anti-IGF-1R antibodies in serial dilutions (0.19 to 200 nM in medium) were added to MCF7 cells in 96-well plates for one hour. IGF-I (10 ng/ml) or IGF-11 (50 ng/ml) was subsequently added and incubated for ten minutes. The cells were lysed, and the resulting lysates were transferred to an ELISA plate, which was coated with IGF-1R-capturing antibody 3B7 (250 ng/well). After incubation for two hours, the cell lysate was removed, and the plates were washed. Phosphotyrosine-specific antibody 4G10 (Upstate, Charlottesville, Va., USA) was added to detect IGF-1R phosphorylation through TMB peroxidase substrate.

Molecule | binding to mouse IGF-1R (murine IGF-1R) | inhibition of IGF-I or IGF-II binding to IGF-1R (human IGF-1R-ECD) | Effect of IR3, 6D2, 9F2, and 10H5 (PC3) | Effect of IR3, 6D2, 9F2, and 10H5 (DU145) | Effect of IR3, 6D2, 9F2, and 10H5 (KM12) | Effect of IR3, 6D2, 9F2, and 10H5 (SW480) | Effect of IR3, 6D2, 9F2, and 10H5 (DLD1) | Effect of IR3, 6D2, 9F2, and 10H5 (HMEC) | inhibition of IGF-I/II-mediated IGF-1R phosphorylation (KIRA) (IGF-1R)
B1 | not to mouse IGF-1R or human insulin receptor | most potent group | − | − | − | + | − | − | most effective group
B2 | not to mouse IGF-1R or human insulin receptor | most potent group | − | − | − | + | − | − | most effective group
